According to patent US20040241222A1, “Lipid-polymer-conjugates compositions” (priority 2001, published 2004):

Assays:
[1] = Encapsulation efficiency of prednisolone phosphate in liposomes (HPLC); type: physicochemical; details: prednisolone phosphate-containing DPPC/cholesterol liposomes
[2] = Particle size and polydispersity of liposomes by dynamic light scattering; type: physicochemical; details: prednisolone phosphate-containing DPPC/cholesterol liposomes, light scattering (Malvern Zeta-sizer)
Method: The lipid loss during preparation of the liposomes was 25%, determined by comparing the final radioactivity of the preparation with the activity before the extrusion procedure. The suspension of liposomes was stored in a nitrogen atmosphere at 4° C.
Liposomes were prepared using the film method, as described in example 23. Instead of egg phosphatidylcholine dipalmitoyl phosphatidylcholine was used. 5 mM HEPES buffer was added to the dry lipid film and shaken during 5 minutes in the presence of glass beads in order to enable complete hydration of the lipid film. The liposomes were sized by extrusion 12 times through 2 stacked PC membranes having pore sizes of […]. The resulting liposome dispersions were dialysed (MWCO 10,000) and average particle sizes were determined using dynamic light scattering technique. See table 1 for the properties of the liposomal preparations.

[3] = Kinetics of 3H-labelled liposomes containing lipid-polymer-conjugates after a single intravenous injection to the rat (blood circulation time); type: in vivo; details: intravenous administration to rats, compared with corresponding PEG-grafted liposomes
Method: 100 μl was transferred to a scintillation vial (20 ml).
100 μl of Solvable was added. This was incubated for at least 1 hour.
100 μl of 1 mM EDTA and 200 μl H2O2 30% were added. This mixture was incubated for 24 hours at room temperature and overnight at 50° C. thereafter.
Ultima Gold (10 ml) was added as the scintillation fluid.
Radioactivity was measured by LSC.
The increase of blood circulation time was assessed, wherein: […]

[4] = Storage stability of liposomal preparations (percentage encapsulated prednisolone phosphate versus time); type: physicochemical; details: prednisolone phosphate-containing liposome suspensions, nitrogen atmosphere, 4° C. (FIG. 3)
Text: FIG. 3 is a graphical representation of the percentage encapsulated prednisolone phosphate in PEG-DSPE and PHEA-DODASuc, respectively, containing liposomal preparations versus time (example 26).

Substance: PEG-distearoylphosphatidylethanol-amine [PEG-DSPE]
- Encapsulation efficiency of the prednisolone phosphate [1]: 2.6%
- Mean particle size [2]: ~90 nm

Substance: PHEG-Diaminobutane DODASuc [Ex. 8.1]
- Blood circulation time of the liposomes [3]: Results similar to those obtained with the corresponding PEG-grafted liposomes

Substance: Poly(2-hydroxyethyl)-L-asparagine DODASuc [Ex. 14]
- Blood circulation time of the liposomes [3]: Results similar to those obtained with the corresponding PEG-grafted liposomes
- Storage stability compared with PEG-DSPE reference liposomes [4]: performed slightly better

Substance: Poly(D,L-methionine Sulfoxide) DODASuc [Ex. 18]
- Blood circulation time of the liposomes [3]: Results similar to those obtained with the corresponding PEG-grafted liposomes
